From patent US20240076386A1 (Pfizer, published 2024)
Changes are numbered by the printed parent chain.

T1: human E-selectin, cell-surface expressed (human, UniProt P16581 22-610)
T1 construct: also called CHO-human E-selectin cells; human CHO-E
T1 sequence: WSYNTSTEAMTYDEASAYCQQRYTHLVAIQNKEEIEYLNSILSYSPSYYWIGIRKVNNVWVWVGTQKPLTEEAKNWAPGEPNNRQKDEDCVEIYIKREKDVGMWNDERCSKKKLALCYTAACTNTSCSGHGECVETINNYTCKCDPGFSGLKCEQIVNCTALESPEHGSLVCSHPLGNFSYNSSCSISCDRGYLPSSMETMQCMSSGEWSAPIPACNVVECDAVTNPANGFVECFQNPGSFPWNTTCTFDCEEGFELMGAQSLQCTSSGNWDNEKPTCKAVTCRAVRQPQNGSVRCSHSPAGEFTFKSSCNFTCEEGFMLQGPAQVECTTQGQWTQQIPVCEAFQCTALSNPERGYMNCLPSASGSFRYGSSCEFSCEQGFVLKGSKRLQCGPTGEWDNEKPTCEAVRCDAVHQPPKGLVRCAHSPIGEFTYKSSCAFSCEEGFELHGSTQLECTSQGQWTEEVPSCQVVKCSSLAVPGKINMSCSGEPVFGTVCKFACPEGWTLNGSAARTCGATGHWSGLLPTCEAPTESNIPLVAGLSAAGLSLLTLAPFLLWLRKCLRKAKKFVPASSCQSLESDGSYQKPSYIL

T2: recombinant histidine-tagged cynomolgus monkey E-selectin (Sino Biologicals; 190169-C08H) (cynomolgus monkey, UniProt A0A2K5U7H9 22-554)
T2 construct: also called recombinant cynomolgus monkey E-selectin
T2 sequence: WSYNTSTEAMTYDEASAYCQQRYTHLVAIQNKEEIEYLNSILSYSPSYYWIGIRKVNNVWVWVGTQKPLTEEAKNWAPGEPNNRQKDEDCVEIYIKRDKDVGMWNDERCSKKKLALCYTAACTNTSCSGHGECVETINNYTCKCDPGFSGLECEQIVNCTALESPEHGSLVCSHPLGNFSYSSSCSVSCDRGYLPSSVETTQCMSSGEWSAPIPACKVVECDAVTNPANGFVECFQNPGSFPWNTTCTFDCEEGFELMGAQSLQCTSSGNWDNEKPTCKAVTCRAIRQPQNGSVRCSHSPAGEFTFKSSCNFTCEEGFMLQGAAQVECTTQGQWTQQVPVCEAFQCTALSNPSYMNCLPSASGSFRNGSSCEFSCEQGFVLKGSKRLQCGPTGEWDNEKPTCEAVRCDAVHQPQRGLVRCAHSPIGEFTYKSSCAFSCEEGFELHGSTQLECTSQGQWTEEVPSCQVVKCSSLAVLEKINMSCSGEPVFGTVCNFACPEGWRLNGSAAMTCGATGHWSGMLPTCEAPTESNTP

B1: humanized anti-E-selectin antibody 0841 (antibody, human IgG1, kappa, V domains shown)
VH: EVQLVESGGGLVQPGGSLRLSCAASGYNIRSSYMHWVRQAPGKGLEWVARIDPANGNTIYAEKFKIRFTISADNAKNSAYLQMNSLRAEDTAVYYCAMDLYSTSEYWGQGTLVTVSS
VL: DIQMTQSPSSLSASVGDRVTITCKTSQNINRYLNWYQQKPGKAPKLLIYNANSLQTGVPSRFSGSGSGTDFTLTISSLQPEDFATYFCLQDNSWPLTFGQGTKVEIKR
notes: effector-null human IgG1, kappa
B2: optimized anti-E-selectin antibody 1282 (antibody, human IgG1, kappa, V domains shown)
VH: B1 VH with N28A, S32A, A61V, E62D, K63S, F64V, K65E, I66G
VL: B1 VL with N30E, N50A, N52S, T56S, S93A
notes: as for B1
B3: optimized anti-E-selectin antibody 1284 (antibody, human IgG1, kappa, V domains shown)
VH: B1 VH with N28A, S32A, A61V, K63S, F64V, K65E, I66G
VL: B1 VL with N30E, N50A, N52S, T56S, S93A
notes: as for B1
B4: optimized anti-E-selectin antibody 1448 (antibody, human IgG1, kappa, V domains shown)
VH: B1 VH with N28A, S32A, A61V, E62D, K63S, F64V, I66E
VL: B1 VL with N30E, N50A, N52S, T56S, S93A
notes: as for B1
B5: optimized anti-E-selectin antibody 1444 (antibody, human IgG1, kappa, V domains shown)
VH: B1 VH with N28A, S32A, A61V, E62D, K63S, F64V, K65T, I66G
VL: B1 VL with N30E, N50A, N52S, T56S, S93A
notes: as for B1
B6: anti-E-selectin antibody 0159 chimera (antibody, human IgG1, kappa, V domains shown)
VH: EVQLQQSGAELGKPGTSVKLSCKVSGYNIRSTYMHWVSQRPGKGLEWIGRIDPANGNTIYAEKFKRKATLTADTSSNTAYMQLSQLKSDDRAIYFCAMEVRVSFEYWGQGVMVTVSS
VL: DIQMTQSPSFLSASVGDRVTINCKASQNINKYLDWYQQKLGEGPKLLIYYTNNLHTGIPSRFSGSGSGTDFTLTISSLQPEDVATYFCLQHDSGYTFGAGTKLELKR
notes: rat VH/VL on effector-null human IgG1 and human kappa
B7: anti-E-selectin antibody 0170 chimera (antibody, human IgG1, kappa, V domains shown)
VH: EVQLQQSGAELGKPGTSVKLSCKVSGYSIRSTYMHWVNQRPGKGLEWVGRIDPANGNTIYAERFKNKATLTADTSSNTAYMQLSQLKSDDTAIYFCAVEILGIFDYWGQGVMVTVSS
VL: B6 VL with N30D, G43A, I48M, Y50N, N53S, D92N
notes: as for B6
B8: anti-E-selectin antibody 0158 chimera (antibody, human IgG1, kappa, V domains shown)
VH: QVQLKESGPGLVQPSETLSLTCTVSGFSISTYNVHWLRQPPGKGLEWMGMMWSGGSPDYNSALKSRLSISRDTSKNQVFLKMNSLQSEDTTTYYCARWGGGFDYWGQGVMVTVSS
VL: DIVLTQSPTTLSVTPGETVSLSCRASHSIGTNLHWYQQKTNESPRLLIKFTSQSISGIPSRFSASGSGTDFTLNINNVEFDDVSSYFCQQTQSWPLTFGSGTKLEIKR
notes: as for B6
B9: anti-E-selectin antibody 0180 chimera (antibody, human IgG1, kappa, V domains shown)
VH: EVQLQQSGAELGKPGTSVKLSCKVSGYKIRSSYMHWVNQRPGKGLEWIGRIDPANGNTIYGDKFKSKATLTSDTSSNTAYIQLSQLKSDDTAIYFCAIDIGTTFDYWGQGVMVTVSS
VL: DIQMTQSPSFLSASVGDRVTINCKASQHINRYLNWYQQKLGEAPKLLIYDANNLQTGIPSRFSGSGSGTDFTLTISSLQPEDVATYFCLQHNSWPNTFGAGTKLELKR
notes: as for B6
B10: anti-E-selectin antibody 0164 chimera (antibody, human IgG1, kappa, V domains shown)
VH: EVQLQQSGAEFGKPGTSVKLSCKVSGYNIRSSYMHWVNQRPGKGLEWIGRIDPANGNTIYAEKFKIKAILTADSSSNTAYMQLSQLKSDDTAIYFCAMDLYSTSEYWGQGVMVTVSS
VL: B9 VL with A25T, H28N, D50N, N53S, G64A, S76N, H91D, N96L, A100S, L106I
notes: as for B6

target: T1, human E-selectin, cell-surface expressed; experiment: flow cytometry, CHO cells
Experimental: CHO cell lines expressing human E-selectin were detached from confluent flasks using enzyme-free Cell Dissociation Buffer (GIBCO, 13151014). Growth media was immediately added to the detached cells, then centrifuged at 300×g for 5 minutes at room temperature to pellet the cells. The cells were then resuspended in cold CHO buffer consisting of phosphate buffered saline (PBS), pH 7.4 containing bovine serum albumin (BSA; Sigma-Aldrich, A³⁰⁵⁹) at final concentration of 1%, calcium chloride at final concentration of 1 mM, and sodium azide at a final concentration of 0.1%.
Binding studies with CHO cells were performed in duplicate using two rows of a 96-well round bottom plate, whereas, binding studies with primary endothelial cells were performed in a single row of a 96-well V-bottom plate. The plates were centrifuged at 300×g for 2 minutes at 4° C. and the cells were resuspended and blocked by incubation in the CHO buffer for 10 minutes on wet ice. After incubation, the cells were centrifuged at 300×g for 2 minutes at 4° C. to remove the buffer. […] After incubation with the antibody, the cells were washed three times by centrifugation at 300×g for 1 minute at 4° C. and resuspended in cold CHO buffer. The washed cells were resuspended and incubated with 100 μL of 1:1000 dilution of AlexaFluor647-conjugated goat anti-human F(ab′)₂ Fragment (Fcγ fragment specific antibody, [Jackson Innnnunoresearch, 109-606-170] for 45 minutes (CHO cells) or 30 minutes (endothelial cells) on wet ice. The cells were washed three or four times prior to resuspension in CHO buffer for flow cytometric analysis. A Becton Dickinson LSRFortessa instrument using 640 nanometer laser line was used to acquire cell fluorescence data. Geometric mean fluorescence of cells was analyzed by FlowJo software package (FlowJo, LLC) and plotted against antibody concentration. The estimated EC₅₀ values were calculated using nonlinear regression analysis in the Prism suite (GraphPad, version 8).

Question: B1 was tested. Which EC50 did it give?
Answer: 710 pM

Question: For B2, which EC50 is on record?
Answer: 850 pM

Question: B3 was tested. Which EC50 did it give?
Answer: 640 pM

Question: How did the EC50 turn out when B4 was run?
Answer: 750 pM

Question: B5 was tested. Which EC50 did it give?
Answer: 660 pM

target: T2, recombinant histidine-tagged cynomolgus …; experiment: direct binding ELISA, His-tagged selectin on plate
Experimental: Recombinant histidine tagged human P-, E- or L-selectin (Sino Biologicals), mouse E-selectin (Sino Biologicals), rat E-selectin (Sino Biologicals) and Cynomolgus monkey E-selectin (Sino Biologicals) stock solutions were prepared to a final concentration of 1 μg/mL in phosphate buffered saline without calcium and magnesium. Controls included an L-selectin directed antibody (BioLegend; 304811) or P-selectin directed antibody or a negative control IgG. One hundred μL per well of the diluted recombinant selectin proteins were added into a Ni-NTA HisSorb 96 well plate (Qiagen; 35061). Plates were incubated on an orbital shaker at room temperature for 2 hours. Following the incubation, the plates were washed 3 times with 200 μL of wash buffer (50 mM TRIS [trisaminomethane]; 150 mM sodium chloride; 0.05% polysorbate 20, pH 7.4). To decrease nonspecific binding, plates were treated with 200 μL of blocking buffer (BD Opteia buffer; 555213; BD Biosciences), incubated on an orbital shaker for 1 hour at room temperature and washed as described above. […] One hundred μL specific detection antibodies (described below) were added and incubated for 1 hour: [0556] […] Anti L-selectin and anti-rat-E-selectin antibodies were detected using 1 to 25000 dilution of Peroxidase-conjugated AffiniPure Goat Anti-Mouse IgG (H+L); (Jackson ImnnunoResearch Lab).
Plates were washed and 100 μL per well of 1-Step Ultra TMB substrate (Thermo Scientific) was added and incubated for 5 minutes at room temperature. Reactions were stopped with 100 μL of 2 M sulfuric acid and absorbance read at 450 nm (Spectramax M5e).

Question: With B1 as the binder, how does the EC50 read?
Answer: 81 pM

Question: Which EC50 does the source give for B3 here?
Answer: 82 pM

Question: For B5, which EC50 is on record?
Answer: 93 pM

target: T1, human E-selectin, cell-surface expressed; experiment: cell-based or functional assay

Question: For B6, which “static neutralization, HL-60 Cell adhesion CHO-Human E-selectin cells IC50 (nM)” value is on record?
Answer: > 50 % inhibition at 49.4 nM

Question: How did the “static neutralization, HL-60 Cell adhesion CHO-Human E-selectin cells IC50 (nM)” value turn out when B7 was run?
Answer: > 50 % inhibition at 444 nM

Question: Which “static neutralization, HL-60 Cell adhesion CHO-Human E-selectin cells IC50 (nM)” value does the source give for B8 here?
Answer: > 50 % inhibition at 16.5 nM

Question: With B9 as the binder, how does the “static neutralization, HL-60 Cell adhesion CHO-Human E-selectin cells IC50 (nM)” value read?
Answer: > 50 % inhibition at 444 nM

Question: For B10, which “static neutralization, HL-60 Cell adhesion CHO-Human E-selectin cells IC50 (nM)” value is on record?
Answer: > 50 % inhibition at 16.5 nM
